For data set [1], the target named is analogs where the A-chain is derived from the sequence of IGF-1.
Data set [2] deals with insulin analogs where the A-chain is derived from the native insulin sequence.

The record followed here is patent US20170283479.

B1: rDNA rat insulin-specific degrading enzyme (IDE) (protein)
chain: MNNPAIQRIEDHIVKSPEDKREYRGLELANGIKVLLISDPTTDKSSAALDVHIGSLSDPPNIPGLSHFCEHMLFLGTKKYPKENEYSQFLSEHAGSSNAFTSGEHTNYYFDVSHEHLEGALDRFAQFFLCPLFDASCKDREVNAVDSEHEKNVMNDAWRLFQLEKATGNPKHPFSKFGTGNKYTLETRPNQEGIDVREELLKFHSTYYSSNLMAICVLGRESLDDLTNLVVKLFSEVENKNVPLPEFPEHPFQEEHLKQLYKIVPIKDIRNLYVTFPIPDLQQYYKSNPGHYLGHLIGHEGPGSLLSELKSKGWVNTLVGGQKEGARGFMFFIINVDLTEEGLLHVEDIILHMFQYIQKLRAEGPQEWVFQECKDLNAVAFRFKDKERPRGYTSKIAGKLHYYPLNGVLTAEYLLEEFRPDLIDMVLDKLRPENVRVAIVSKSFEGKTDRTEQWYGTQYKQEAIPEDVIQKWQNADLNGKFKLPTKNEFIPTNFEILALEKDATPYPALIKDTAMSKLWFKQDDKFFLPKACLNFEFFSPFAYVDPLHCNMAYLYLELLKDSLNEYAYAAELAGLSYDLQNTIYGMYLSVKGYNDKQPILLKKITEKMATFEIDKKRFEIIKEAYMRSLNNFRAEQPHQHAMYYLRLLMTEVAWTKDELKEALDDVTLPRLKAFIPQLLSRLHIEALLHGNITKQAALGVMQMVEDTLIEHAHTKPLLPSQLVRYREVQLPDRGWFVYQRRNEVHNNCGIEIYYQTDMQSTSENMFLELFCQIISEPCFNTLRTKEQLGYIVFSGPRRANGIQGLRFIIQSEKPPHYLESRVEAFLITMEKAIEDMTEEAFQKHIQALAIRRLDKPKKLSAECAKYWGEIISQQYNYDRDNIEVAYLKTLSKDDIIKFYKEMLAVDAPRRHKVSVHVLAREMDSCPVVGEFPSQNDINLSEAPPLPQPEVIHNMTEFKRGLPLFPLVKPHINFMAAKL
Regarding B1, the “cleavage by IDE (HPLC and residual insulin receptor phosphorylation activity)” value in data set [1] was “appear to be extremely resistant to proteolysis”; in data set [2], “extremely robust and easily detected”.
